Experimental data as given in paper PMC11272584 (Nature Metabolism, 2024).

How the values were obtained:
GIPR R164W = target: T1, GIPR R164W (Homo sapiens, UniProt P48546, R164W); assay: cAMP accumulation; assay type: cell-based
T1 construct: host or cells: HEK293
T1 sequence (P48546 22-466 R164W): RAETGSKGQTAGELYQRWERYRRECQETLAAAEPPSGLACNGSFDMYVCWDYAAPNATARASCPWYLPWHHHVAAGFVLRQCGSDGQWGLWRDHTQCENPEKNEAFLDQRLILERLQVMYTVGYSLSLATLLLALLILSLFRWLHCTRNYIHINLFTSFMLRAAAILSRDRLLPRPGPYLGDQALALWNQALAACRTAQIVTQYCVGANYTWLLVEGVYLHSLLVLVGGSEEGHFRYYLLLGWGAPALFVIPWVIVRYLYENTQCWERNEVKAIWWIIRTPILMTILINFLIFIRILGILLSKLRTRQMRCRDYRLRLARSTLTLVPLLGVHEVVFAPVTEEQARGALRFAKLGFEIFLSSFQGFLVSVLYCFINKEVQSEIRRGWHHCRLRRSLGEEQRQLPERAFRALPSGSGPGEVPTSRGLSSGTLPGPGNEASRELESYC
Experimental: (§1) HEK293 (CRL-1573, American Type Culture Collection) and β-arrestin 1/2 knockout cells, generated from HEK293A[48], were used for cAMP measurement, homologues competition binding and β-arrestin 2 recruitment. […] Both cell lines were cultured at 5% CO2 at 37 °C in Roswell Park Memorial Institute GlutaMAX-I supplemented with 10% fetal bovine serum, 180 units ml^−1 penicillin, and 45 g ml^−1 streptomycin. For the cAMP and binding experiments, cells were transfected with the calcium phosphate precipitation method[49].
(§2) cAMP production was measured with the DiscoverX Hithunter cAMP assay according to the manufacturer’s protocol (DiscoverX). […] On the day of the assay, the cells were washed twice with HEPES-buffered saline (HBS) and incubated with HBS and 1 mM 3-isobutyl-1-methylxanthine for 30 min at 37 °C. […] After the incubation, the assay medium was removed from the plate and the cells were washed with 30 µl PBS and treated with 40 µl enzyme donor–lysis buffer–chemiluminescent reagents and 10 µl cAMP antibodies for 60 min before 40 µl enzyme acceptor solution added. After a 3-h incubation on a shaking table in the dark, the cAMP accumulation was measured based on luminescence with a Perkin Elmer EnVision 2104 Multilabel Microplate Reader. […]

GIPR variants (groups) [1] = assay: cAMP accumulation; assay type: cell-based, human; conditions: for In vitro groups (cAMP): cAMP part of the in vitro group; for percentage_camp: cAMP production compared with WT; for Beta, cAMP: in vitro cAMP production per GIPR variant
GIPR variants (groups) [2] = assay: β-arrestin 2 recruitment (BRET); conditions: for In vitro groups (β-arrestin): arr part of the in vitro group; for Beta, Barr: in vitro β-arrestin recruitment per GIPR variant;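 for all read-outs here: BRET readout of β-arrestin 2 recruitment in transiently transfected HEK293 cells expressing WT GIPR or a GIPR variant plus GPCR kinase 2, Rluc8 donor and citrine acceptor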
Experimental: Both cell lines were cultured at 5% CO2 at 37 °C in Roswell Park Memorial Institute GlutaMAX-I supplemented with 10% fetal bovine serum, 180 units ml^−1 penicillin, and 45 g ml^−1 streptomycin. […] The polyethyleneimine (PEI) transfection method was used for the β-arrestin 2 recruitment assays[50], endosomal signalling and basal receptor localization assays, while the lipofectamine transfection method was used for the internalization assay.
Measurement of β-arrestin 2 recruitment was performed with a BRET assay. Two days before the assay, the HEK293 cells were transiently transfected with either WT GIPR or the GIPR variants together with the donor Rluc8-Arrestin-3-Sp1, the acceptor mem-linker-citrine-SH3 and the GPCR kinase 2 to facilitate β-arrestin 2 recruitment. On assay day, the cells were washed with PBS and resuspended in PBS supplemented with 5 mmol l^−1 glucose. Subsequently, 85 µl of the cell suspension was transferred to a white 96-well plate and 10 µl of 50 µM coelenterazine-h was added.

GIPR A185V = target: T2, GIPR A185V (Homo sapiens, UniProt P48546, A185V); assay: cAMP accumulation; assay type: cell-based
T2 construct: host or cells: HEK293
T2 sequence (P48546 22-466 A185V): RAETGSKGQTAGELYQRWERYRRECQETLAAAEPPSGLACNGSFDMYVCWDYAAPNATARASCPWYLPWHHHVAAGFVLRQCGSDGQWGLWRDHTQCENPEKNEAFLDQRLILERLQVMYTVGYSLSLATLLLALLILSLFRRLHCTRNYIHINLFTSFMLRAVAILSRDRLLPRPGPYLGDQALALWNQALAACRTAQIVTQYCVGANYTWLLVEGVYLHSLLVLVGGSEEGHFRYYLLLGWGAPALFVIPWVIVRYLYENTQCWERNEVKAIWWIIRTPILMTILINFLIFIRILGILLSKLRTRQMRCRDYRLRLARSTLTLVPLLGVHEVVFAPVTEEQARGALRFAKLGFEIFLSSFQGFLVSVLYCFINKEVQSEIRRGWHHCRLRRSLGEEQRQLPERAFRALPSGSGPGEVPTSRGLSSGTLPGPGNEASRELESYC
Experimental: as §1
(§3) cAMP production was measured with the DiscoverX Hithunter cAMP assay according to the manufacturer’s protocol (DiscoverX). […] On the day of the assay, the cells were washed twice with HEPES-buffered saline (HBS) and incubated with HBS and 1 mM 3-isobutyl-1-methylxanthine for 30 min at 37 °C. […] After the incubation, the assay medium was removed from the plate and the cells were washed with 30 µl PBS and treated with 40 µl enzyme donor–lysis buffer–chemiluminescent reagents and 10 µl cAMP antibodies for 60 min before 40 µl enzyme acceptor solution added. After a 3-h incubation on a shaking table in the dark, the cAMP accumulation was measured based on luminescence with a Perkin Elmer EnVision 2104 Multilabel Microplate Reader.

GIPR H166Y = target: T3, GIPR H166Y (Homo sapiens, UniProt P48546, H166Y); assay: cAMP accumulation; assay type: cell-based
T3 construct: host or cells: HEK293
T3 sequence (P48546 22-466 H166Y): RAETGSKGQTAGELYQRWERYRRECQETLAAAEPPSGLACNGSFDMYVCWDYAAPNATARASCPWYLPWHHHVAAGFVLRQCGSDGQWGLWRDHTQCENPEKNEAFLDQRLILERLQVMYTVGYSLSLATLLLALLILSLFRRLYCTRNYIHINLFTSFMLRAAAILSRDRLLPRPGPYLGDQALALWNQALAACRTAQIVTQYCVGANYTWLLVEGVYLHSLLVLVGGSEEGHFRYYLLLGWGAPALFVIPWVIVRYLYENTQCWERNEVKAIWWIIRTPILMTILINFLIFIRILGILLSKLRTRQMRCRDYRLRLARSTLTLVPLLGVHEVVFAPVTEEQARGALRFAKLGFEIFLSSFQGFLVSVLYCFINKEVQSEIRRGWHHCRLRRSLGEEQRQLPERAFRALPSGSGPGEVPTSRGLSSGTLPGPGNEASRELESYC
Experimental: as §1, §2

GIPR T168A = target: T4, GIPR T168A (Homo sapiens, UniProt P48546, T168A); assay: cAMP accumulation; assay type: cell-based
T4 construct: host or cells: HEK293
T4 sequence (P48546 22-466 T168A): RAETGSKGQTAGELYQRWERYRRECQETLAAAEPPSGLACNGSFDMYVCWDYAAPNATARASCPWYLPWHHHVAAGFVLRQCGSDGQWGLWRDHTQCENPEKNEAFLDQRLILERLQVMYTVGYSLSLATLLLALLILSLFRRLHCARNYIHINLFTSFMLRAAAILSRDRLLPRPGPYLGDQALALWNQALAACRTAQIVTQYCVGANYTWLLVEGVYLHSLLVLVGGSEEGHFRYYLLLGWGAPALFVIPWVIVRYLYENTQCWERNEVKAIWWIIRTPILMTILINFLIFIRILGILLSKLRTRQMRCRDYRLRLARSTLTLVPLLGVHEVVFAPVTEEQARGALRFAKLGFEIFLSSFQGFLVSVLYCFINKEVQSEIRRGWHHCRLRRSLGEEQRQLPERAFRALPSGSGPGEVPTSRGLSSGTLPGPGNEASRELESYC
Experimental: as §1, §3

GIPR R183Q = target: T5, GIPR R183Q (Homo sapiens, UniProt P48546, R183Q); assay: cAMP accumulation; assay type: cell-based
T5 construct: host or cells: HEK293
T5 sequence (P48546 22-466 R183Q): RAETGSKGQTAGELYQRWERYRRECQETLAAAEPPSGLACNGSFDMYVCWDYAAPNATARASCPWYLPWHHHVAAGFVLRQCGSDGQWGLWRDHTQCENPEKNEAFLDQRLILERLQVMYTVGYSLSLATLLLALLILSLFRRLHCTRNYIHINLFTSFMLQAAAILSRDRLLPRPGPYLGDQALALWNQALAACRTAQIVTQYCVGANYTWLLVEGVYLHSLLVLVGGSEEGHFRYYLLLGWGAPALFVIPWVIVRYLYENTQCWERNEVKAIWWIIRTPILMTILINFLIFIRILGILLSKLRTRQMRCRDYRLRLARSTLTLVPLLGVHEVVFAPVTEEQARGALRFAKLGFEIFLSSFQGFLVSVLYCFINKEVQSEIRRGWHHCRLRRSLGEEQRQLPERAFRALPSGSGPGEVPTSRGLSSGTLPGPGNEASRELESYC
Experimental: as §1, §3

B1: R164W (protein)
chain: RAETGSKGQTAGELYQRWERYRRECQETLAAAEPPSGLACNGSFDMYVCWDYAAPNATARASCPWYLPWHHHVAAGFVLRQCGSDGQWGLWRDHTQCENPEKNEAFLDQRLILERLQVMYTVGYSLSLATLLLALLILSLFRWLHCTRNYIHINLFTSFMLRAAAILSRDRLLPRPGPYLGDQALALWNQALAACRTAQIVTQYCVGANYTWLLVEGVYLHSLLVLVGGSEEGHFRYYLLLGWGAPALFVIPWVIVRYLYENTQCWERNEVKAIWWIIRTPILMTILINFLIFIRILGILLSKLRTRQMRCRDYRLRLARSTLTLVPLLGVHEVVFAPVTEEQARGALRFAKLGFEIFLSSFQGFLVSVLYCFINKEVQSEIRRGWHHCRLRRSLGEEQRQLPERAFRALPSGSGPGEVPTSRGLSSGTLPGPGNEASRELESYC
With B1 the “Efficacy at 100pmol (cAMP)” value (GIPR R164W) was 0.003189, the “In vitro groups (cAMP)” value (GIPR variants (groups) [1]) was “LoF_camp” and the percentage_camp (GIPR variants (groups) [1]) was under 50% cAMP. For the same molecule, the “Beta, cAMP” value (GIPR variants (groups) [1]) was 0.003189, the “In vitro groups (β-arrestin)” value (GIPR variants (groups) [2]) was “LoF_arr” and the “Beta, Barr” value (GIPR variants (groups) [2]) was 0.

B2: A185V (protein)
chain: RAETGSKGQTAGELYQRWERYRRECQETLAAAEPPSGLACNGSFDMYVCWDYAAPNATARASCPWYLPWHHHVAAGFVLRQCGSDGQWGLWRDHTQCENPEKNEAFLDQRLILERLQVMYTVGYSLSLATLLLALLILSLFRRLHCTRNYIHINLFTSFMLRAVAILSRDRLLPRPGPYLGDQALALWNQALAACRTAQIVTQYCVGANYTWLLVEGVYLHSLLVLVGGSEEGHFRYYLLLGWGAPALFVIPWVIVRYLYENTQCWERNEVKAIWWIIRTPILMTILINFLIFIRILGILLSKLRTRQMRCRDYRLRLARSTLTLVPLLGVHEVVFAPVTEEQARGALRFAKLGFEIFLSSFQGFLVSVLYCFINKEVQSEIRRGWHHCRLRRSLGEEQRQLPERAFRALPSGSGPGEVPTSRGLSSGTLPGPGNEASRELESYC
With B2 the “Efficacy at 100pmol (cAMP)” value (GIPR A185V) was 0.2646, the “In vitro groups (cAMP)” value (GIPR variants (groups) [1]) was “LoF_camp” and the percentage_camp (GIPR variants (groups) [1]) was under 50% cAMP. The “Beta, cAMP” value (GIPR variants (groups) [1]) was 0.2646, the “In vitro groups (β-arrestin)” value (GIPR variants (groups) [2]) was “WT-like_arr” and the “Beta, Barr” value (GIPR variants (groups) [2]) was 0.8905.

B3: H166Y (protein)
chain: RAETGSKGQTAGELYQRWERYRRECQETLAAAEPPSGLACNGSFDMYVCWDYAAPNATARASCPWYLPWHHHVAAGFVLRQCGSDGQWGLWRDHTQCENPEKNEAFLDQRLILERLQVMYTVGYSLSLATLLLALLILSLFRRLYCTRNYIHINLFTSFMLRAAAILSRDRLLPRPGPYLGDQALALWNQALAACRTAQIVTQYCVGANYTWLLVEGVYLHSLLVLVGGSEEGHFRYYLLLGWGAPALFVIPWVIVRYLYENTQCWERNEVKAIWWIIRTPILMTILINFLIFIRILGILLSKLRTRQMRCRDYRLRLARSTLTLVPLLGVHEVVFAPVTEEQARGALRFAKLGFEIFLSSFQGFLVSVLYCFINKEVQSEIRRGWHHCRLRRSLGEEQRQLPERAFRALPSGSGPGEVPTSRGLSSGTLPGPGNEASRELESYC
With B3 the “Efficacy at 100pmol (cAMP)” value (GIPR H166Y) was 0.9566, the “In vitro groups (cAMP)” value (GIPR variants (groups) [1]) was “WT-like_camp” and the percentage_camp (GIPR variants (groups) [1]) was over 50% cAMP. The “Beta, cAMP” value (GIPR variants (groups) [1]) was 0.9566, the “In vitro groups (β-arrestin)” value (GIPR variants (groups) [2]) was “LoF_arr” and the “Beta, Barr” value (GIPR variants (groups) [2]) was 0.3616.

B4: T168A (protein)
chain: RAETGSKGQTAGELYQRWERYRRECQETLAAAEPPSGLACNGSFDMYVCWDYAAPNATARASCPWYLPWHHHVAAGFVLRQCGSDGQWGLWRDHTQCENPEKNEAFLDQRLILERLQVMYTVGYSLSLATLLLALLILSLFRRLHCARNYIHINLFTSFMLRAAAILSRDRLLPRPGPYLGDQALALWNQALAACRTAQIVTQYCVGANYTWLLVEGVYLHSLLVLVGGSEEGHFRYYLLLGWGAPALFVIPWVIVRYLYENTQCWERNEVKAIWWIIRTPILMTILINFLIFIRILGILLSKLRTRQMRCRDYRLRLARSTLTLVPLLGVHEVVFAPVTEEQARGALRFAKLGFEIFLSSFQGFLVSVLYCFINKEVQSEIRRGWHHCRLRRSLGEEQRQLPERAFRALPSGSGPGEVPTSRGLSSGTLPGPGNEASRELESYC
In the case of B4, the “Efficacy at 100pmol (cAMP)” value (GIPR T168A) is reported as 0.2182, the “In vitro groups (cAMP)” value (GIPR variants (groups) [1]) is reported as “LoF_camp” and the percentage_camp (GIPR variants (groups) [1]) is reported as under 50% cAMP. For the same molecule, the “Beta, cAMP” value (GIPR variants (groups) [1]) was 0.2182, the “In vitro groups (β-arrestin)” value (GIPR variants (groups) [2]) was “LoF_arr” and the “Beta, Barr” value (GIPR variants (groups) [2]) was 0.2206.

B5: R183Q (protein)
chain: RAETGSKGQTAGELYQRWERYRRECQETLAAAEPPSGLACNGSFDMYVCWDYAAPNATARASCPWYLPWHHHVAAGFVLRQCGSDGQWGLWRDHTQCENPEKNEAFLDQRLILERLQVMYTVGYSLSLATLLLALLILSLFRRLHCTRNYIHINLFTSFMLQAAAILSRDRLLPRPGPYLGDQALALWNQALAACRTAQIVTQYCVGANYTWLLVEGVYLHSLLVLVGGSEEGHFRYYLLLGWGAPALFVIPWVIVRYLYENTQCWERNEVKAIWWIIRTPILMTILINFLIFIRILGILLSKLRTRQMRCRDYRLRLARSTLTLVPLLGVHEVVFAPVTEEQARGALRFAKLGFEIFLSSFQGFLVSVLYCFINKEVQSEIRRGWHHCRLRRSLGEEQRQLPERAFRALPSGSGPGEVPTSRGLSSGTLPGPGNEASRELESYC
In the case of B5, the “Efficacy at 100pmol (cAMP)” value (GIPR R183Q) is reported as 0, the “In vitro groups (cAMP)” value (GIPR variants (groups) [1]) is reported as “LoF_camp” and the percentage_camp (GIPR variants (groups) [1]) is reported as under 50% cAMP. The “Beta, cAMP” value (GIPR variants (groups) [1]) was 0, the “In vitro groups (β-arrestin)” value (GIPR variants (groups) [2]) was “LoF_arr” and the “Beta, Barr” value (GIPR variants (groups) [2]) was 0.03853.
